Assays:
human TNFα (human) = human TNFα (human) (UniProt P01375); assay: CG-MALS of antibody:TNFα complexes, molar ratios about 0.5 to 5.0, antibody 10 µg/mL, PBS pH 7.2
[1] = biological target: human FcγRIIb (CD32b) (human) (UniProt P31994); assay: SPR, Biacore T200, antibody captured on protein A, FcγR as analyte, 37 °C, N=3
[2] = biological target: human FcγRI (CD64) (human) (UniProt P12314); assay: as above
Chain of human FcγRI (CD64) (human) (P12314 16-288 limits assumed): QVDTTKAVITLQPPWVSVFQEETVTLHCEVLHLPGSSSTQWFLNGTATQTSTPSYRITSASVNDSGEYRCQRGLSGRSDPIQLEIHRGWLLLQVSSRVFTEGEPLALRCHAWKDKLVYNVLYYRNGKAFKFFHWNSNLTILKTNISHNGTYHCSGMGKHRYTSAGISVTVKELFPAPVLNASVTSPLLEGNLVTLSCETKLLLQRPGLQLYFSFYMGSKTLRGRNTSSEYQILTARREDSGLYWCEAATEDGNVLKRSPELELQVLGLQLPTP

Chain of human TNFα (human) (P01375 77-233 limits assumed): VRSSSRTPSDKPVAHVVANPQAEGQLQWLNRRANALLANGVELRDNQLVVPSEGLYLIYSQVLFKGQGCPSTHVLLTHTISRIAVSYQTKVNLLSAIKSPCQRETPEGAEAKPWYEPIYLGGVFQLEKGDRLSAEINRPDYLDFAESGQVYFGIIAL
Chain of human FcγRIIb (CD32b) (human) (P31994 43-217 limits assumed): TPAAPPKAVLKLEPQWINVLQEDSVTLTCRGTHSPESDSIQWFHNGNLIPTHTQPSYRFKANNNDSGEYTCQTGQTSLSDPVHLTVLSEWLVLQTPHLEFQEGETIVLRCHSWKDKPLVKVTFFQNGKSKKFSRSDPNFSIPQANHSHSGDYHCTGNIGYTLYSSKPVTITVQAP

maximum immune complex weight average molecular weight (human TNFα (human)): > 1300 kDa
Kd [1]: 5730 nM
Kd [2]: 0.0563 nM
Substance: parental anti-TNFα antibody (adalimumab, as described in U.S. Pat. No. 6,090,382)

Source: patent publication US20190040156A1
